Laboratory results: patent US20120052069A1 (Amgen, published 2012)

Molecular target: β-Klotho overexpressed in recombinant human 293T kidney cells
Assay: cell-based or functional assay

B1: human FGF21 (wild-type mature FGF21) (ligand)
chain: HPIPDSSPLLQFGGQVRQRYLYTDDAQQTEAHLEIREDGTVGGAADQSPESLLQLKALKPGVIQILGVKTSRFLCQRPDGALYGSLHFDPEACSFRELLLEDGYNVYQSEAHGLPLHLPGNKSPHRDPAPRGPARFLPLPGLPPAPPEPPGILAPQPPDVGSSDPLSMVGPSQGRSPSYAS
EC50 (nM), ELK luciferase assay: 0.4 nM | Efficacy, ELK luciferase assay: 100%
